Measured values taken from article PMC6534964 (Journal of the American Chemical Society, 2018).
Values belong to the binder of their own block, whether it stands above or below them.

B2: S100A9, subunit of native CP (natural protein, human, UniProt P06702 2-114, looked up)
chain: TCKMSQLERNIETIINTFHQYSVKLGHPDTLNQGEFKELVRKDLQNFLKKENKNEKVIEHIMEDLDTNADKQLSFEEFIMLMARLTWASHEKMHEGDEGPGHHHKPGLGEGTP

Legend:
SEC = biological target: the molecule itself; test: SEC
cross-linking = biological target: the molecule itself; test: cross-linking
[1] = biological target: B2; test: cross-linking
[2] = biological target: T1, S100A9(C3S), subunit of CP-Ser (human, UniProt P06702 2-114, C3S); test: anion exchange chromatography
T1 sequence (looked up): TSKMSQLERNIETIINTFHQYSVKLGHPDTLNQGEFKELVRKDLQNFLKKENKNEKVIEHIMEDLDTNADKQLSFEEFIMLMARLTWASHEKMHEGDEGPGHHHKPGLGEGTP

B1: CP-Ser, S100A8(C42S)/S100A9(C3S) heterodimer of human calprotectin (complex)
chain 1: MLTELEKALNSIIDVYHKYSLIKGNFHAVYRDDLKKLLETESPQYIRKKGADVWFKELDINTDGAVNFQEFLILVIKMGVAAHKKSHEESHKE
chain 2: TSKMSQLERNIETIINTFHQYSVKLGHPDTLNQGEFKELVRKDLQNFLKKENKNEKVIEHIMEDLDTNADKQLSFEEFIMLMARLTWASHEKMHEGDEGPGHHHKPGLGEGTP
binding result (SEC): binds

Binder: B2
binding result (cross-linking): binds

binding result [1]: binds
B3: S100A8, subunit of native CP (natural protein, human, UniProt P05109 1-93, looked up)
chain: MLTELEKALNSIIDVYHKYSLIKGNFHAVYRDDLKKLLETECPQYIRKKGADVWFKELDINTDGAVNFQEFLILVIKMGVAAHKKSHEESHKE

B4: CP-Ser M81A variant, S100A8(C42S)/S100A9(C3S)(M81A) (complex, human)
chain 1: MLTELEKALNSIIDVYHKYSLIKGNFHAVYRDDLKKLLETESPQYIRKKGADVWFKELDINTDGAVNFQEFLILVIKMGVAAHKKSHEESHKE
chain 2: TSKMSQLERNIETIINTFHQYSVKLGHPDTLNQGEFKELVRKDLQNFLKKENKNEKVIEHIMEDLDTNADKQLSFEEFIALMARLTWASHEKMHEGDEGPGHHHKPGLGEGTP
binding result (SEC): binds

binding result [2]: binds
B5: S100A8(C42S), subunit of CP-Ser (natural protein, human, UniProt P05109 1-93, looked up)
chain: MLTELEKALNSIIDVYHKYSLIKGNFHAVYRDDLKKLLETESPQYIRKKGADVWFKELDINTDGAVNFQEFLILVIKMGVAAHKKSHEESHKE
